The subject of one assay is Ung1. Put plainly: Yeast two hybrid (Y2H) analysis of PCNA-partner interaction. Format: binding. To be noted: YRG2 strain, growth on selective agar plates lacking histidine; growth similar to WT PCNA denoted as 1. Here is the method: (§1) For the Y2H assay, we used the YRG2 host strain, shown to be highly efficient in coupling the strength of protein-protein interactions with growth on media lacking histidine. Selected PCNA mutants were characterized for their ability to bind each of 12 main PCNA partners to obtain specificity profiles (Table 1, Table S1, and Figures S4–S5). […] However, in some cases a strong trade-off between the bindings of different partners was observed.
(§2) Y2H analysis was performed using the Yeast Two Hybrid Phagemid vector kit (Stratagene), following the manufacturer's instructions. The pAD-PCNA-WT/mutant plasmids were used as bait while plasmids encoding 12 different PCNA partners (Table 1 and Table S1) were used as prey. The YRG2 host strain (Stratagene) was cotransformed with pAD-PCNA WT/mutant and pBD-partner plasmids in all possible combinations using the LiAC method. Single transformants were grown in liquid SC-Leu-Trp to O.D600 10, washed twice with DDW, and diluted to an initial OD600 of 0.3. A series of 10-fold serial dilutions was then spotted onto selective SC-Leu-Trp-His plates and incubated at 30°C for 3 d. For quantitative Y2H, the generation time of the indicated mutants and their respective partners were calculated from their growth curves in liquid SC-Leu-Trp-His media. Cells were grown overnight in SC-Leu-Trp, washed twice with ddH2O, and diluted by a factor of 1∶50 into 10 ml of pre-warmed SC-Leu-Trp-His. O.D600 measurements of the cultures were taken at the indicated time; the generation time (τ) was calculated from the growth curves according to the equation ODt = OD0×2^t/τ. The generation time calculated for each culture is an average of at least 3 independent experiments.

The test system of the next assay is Msh6. The description is as above. Format: binding. To be noted: YRG2 strain, growth on selective agar plates lacking histidine; growth similar to WT PCNA denoted as 1. Here is the method: as §1, §2
In a further assay the test system is Pol32. The description is as above. Format: binding. To be noted: YRG2 strain, growth on selective agar plates lacking histidine; growth similar to WT PCNA denoted as 1. Here is the method: as §1, §2
For the next assay, the system named is Rad27. The assay is described as above. Format: binding. To be noted: footnote c: generation time in liquid selective media lacking histidine relative to cells expressing WT PCNA; average of at least 3 independent experiments. Here is the method: as §1, §2
A further assay has as its system yeast strains. Put plainly: Viability of haploid strains with mutant as sole source of PCNA (plasmid shuffling, 5FOA). Format: cell-based. The source says:
To study the in vivo ability of PCNA mutants to promote DNA replication and repair in yeast, we adopted a plasmid shuffling method to create haploid yeast strains carrying each mutant as the sole source of PCNA (see Materials and Methods). This approach allowed us to identify PCNA mutants leading to cell death, indicating their inability to support essential DNA replication processes (Figure 5A). […] To verify that the replication defects in the mutant strains (Figure 5) are not due to reduced expression levels of the PCNA proteins, we confirmed the expression level of PCNA using western blot analysis and observed similar expression levels of all PCNA mutants, relative to WT PCNA (Figure S7).
Figure 5 In vivo phenotypic analysis of PCNA mutants. (A) Non-viable strains containing PCNA mutants with increased binding affinity for Rad27 as the sole version of PCNA. Yeast strains containing WT PCNA expressed from a URA3 plasmid and mutant PCNA genes expressed from a LEU2 plasmid are viable (middle). Upon selection for loss of WT PCNA using 5-floororotic acid (5FOA), PCNA mutant strains are non-viable (right). (B) MMS (middle) and HU (right) sensitivity of strains containing PCNA mutants with increased binding affinity for Rad27, Pol32, Rad30, Msh6, and Ung1 and strains containing WT PCNA in which the same partners were deleted. For binding characterization and sequences of the mutants, see Table 1.
Novel haploids containing PCNA mutants were generated using the plasmid shuffling method. Briefly, a pol30::KanMX magic marker heterozygote diploid strain BY4743 (Open Biosystem) was transformed with plasmid pRS316-POL30. Following dissection of the diploid, a haploid containing the CAN+ gene and plasmid pRS316-POL30 as a sole source of PCNA was generated. This host strain was transformed with selected pRS315-pol30 mutants, plated on SC-Ura-Leu plates, followed by replica plating to SC-Leu+5FOA plates. Haploids, containing PCNA mutants as a sole source, were further verified by plating on either SC-Leu or SC-Ura plates. For testing selected PCNA mutants, a haploid containing rad27::HYG, rad30::HYG, pol32::HYG, msh6::HYG, or ung1::HYG were generated using plasmid pAG32 by conventional genetic approaches. Growth of the PCNA mutant strains in the presence of 120 mM HU (Toronto Research Chemicals) or 0.02% MMS (Sigma) was performed as described. To examine the effects of partner overexpression on pol30 mutant strains, these strains were transformed with various plasmids containing GST-tagged PCNA partner encoding genes under the control of a GAL1/10 inducible promoter, as previously described. Overnight cultures were plated in serial dilutions on SC-Ura containing either glucose or galactose with or without DNA-damaging agents, as described above.

The test system of another assay is Cdc9. Put plainly: Yeast two hybrid (Y2H) analysis of PCNA-partner interaction. Format: binding. Also on record: key: ++: major increase in growth; +: moderate increase in growth; similar growth as the WT PCNA-expressing cells; -: minor decrease in growth; --: moderate decrease in growth; ---: major decrease in growth. To be noted: spotting onto selective agar plates; PCNA fused to AD, partner to BD. As for the experimental part: as §2
(§3) Table S1: Yeast two hybrid analysis of binding of selected PCNA mutants with seven additional partners not described in Table 1 of the main text. […]
(§4) pol30-Rad30E2 WT WT WT WT WT WT - pol30-Rad30E9 WT WT WT WT WT WT WT pol30-Rad27E6 WT WT WT WT + WT WT pol30-Rad27E31 WT WT WT WT + WT WT pol30-Rad27L1 WT -- WT WT -- WT WT pol30-Rad27L2 WT -- WT WT -- WT WT pol30-Pol32E5 WT WT WT WT WT WT WT pol30-Pol32E9 - WT WT WT WT WT WT pol30-Msh6E2 WT WT + WT WT WT WT pol30-Msh6E6 WT WT ++ WT WT WT WT pol30-Ung1E3 WT - WT WT WT WT WT pol30-79 --- --- --- - --- --- --- a PCNA mutants with enhanced affinities for the different target partners (see Table 1, text). b PCNA mutants were fused to the activating domain (AD), while the different partners were fused to the DNA-binding domain (BD). The growth of the resulting Y2H strains was compared to the growth of the WT PCNA-expressing strain following spotting onto selective agar plates (see Material and Methods). Growth rates on the agar plates were scored and tabulated as follows: ++ major increase in growth; + moderate increase in growth; WT-similar growth as the WT PCNA-expressing cells; - minor decrease in growth; -- moderate decrease in growth; --- major decrease in growth. ND-Not determined.

The next assay deals with Apn2. Described as above. Format: binding. More on the design: key: ++: major increase in growth; +: moderate increase in growth; similar growth as the WT PCNA-expressing cells; -: minor decrease in growth; --: moderate decrease in growth; ---: major decrease in growth. To be noted: spotting onto selective agar plates; PCNA fused to AD, partner to BD. As for the experimental part: as §2, §3, §4

The test system of the next assay is Msh3. The description is as above. Format: binding. More on the design: key: ++: major increase in growth; +: moderate increase in growth; similar growth as the WT PCNA-expressing cells; -: minor decrease in growth; --: moderate decrease in growth; ---: major decrease in growth. To be noted: spotting onto selective agar plates; PCNA fused to AD, partner to BD. Here is the method:
as §2, §3, §4

The test system of the next assay is Cac1. The assay is described as above. To be noted: spotting onto selective agar plates; PCNA fused to AD, partner to BD. More on the design: key: ++: major increase in growth; +: moderate increase in growth; similar growth as the WT PCNA-expressing cells; -: minor decrease in growth; --: moderate decrease in growth; ---: major decrease in growth. Format: binding. As for the experimental part:
as §2, §3, §4

The next assay deals with Eco1. The description is as above. More on the design: key: ++: major increase in growth; +: moderate increase in growth; similar growth as the WT PCNA-expressing cells; -: minor decrease in growth; --: moderate decrease in growth; ---: major decrease in growth. Format: binding. To be noted: spotting onto selective agar plates; PCNA fused to AD, partner to BD. As for the experimental part:
as §2, §3, §4

A further assay concerns Rfc1. The description is as above. Format: binding. More on the design: key: ++: major increase in growth; +: moderate increase in growth; similar growth as the WT PCNA-expressing cells; -: minor decrease in growth; --: moderate decrease in growth; ---: major decrease in growth. To be noted: spotting onto selective agar plates; PCNA fused to AD, partner to BD. As for the experimental part: as §2, §3, §4

The next assay has as its system Rrm3. The assay is described as above. Format: binding. More on the design: key: ++: major increase in growth; +: moderate increase in growth; similar growth as the WT PCNA-expressing cells; -: minor decrease in growth; --: moderate decrease in growth; ---: major decrease in growth. To be noted: spotting onto selective agar plates; PCNA fused to AD, partner to BD. Here is the method:
as §2, §3, §4

In the next assay the test system is Rad30. Described as above. Format: binding. To be noted: YRG2 strain, growth on selective agar plates lacking histidine; growth similar to WT PCNA denoted as 1. As for the experimental part: as §1, §2

B1: pol30-Rad27L1: PCNA mutant evolved for Rad27, two-residue deletion, IDCL sequence D––VDILKIGEL (protein)
chain: MLEAKFEEASLFKRIIDGFKDCVQLVNFQCKEDGIIAQAVDDSRVLLVSLEIGVEAFQEYRCDHPVTLGMDLTSLSKILRCGNNTDTLTLIADNTPDSIILLFEDTKKDRIAEYSLKLMDVDILKIGELQYDSTLSLPSSEFSKIVRDLSQLSDSINIMITKETIKFVADGDIGSGSVIIKPFVDMEHPETSIKLEMDQPVDLTFGAKYLLDIIKGSSLSDRVGIRLSSEAPALFQFDLKSGFLQFFLAPKFNDEE
modifications: left off: Gal4 activation domain, end not stated, kept
As to B1, in the assay on Ung1, the “Binding of PCNA Mutants to Target Partners: Ung1 (Y2H)” value came to 1. In addition, in the assay with Msh6, the “Binding of PCNA Mutants to Target Partners: Msh6 (Y2H)” value is listed as 1. Further, the “Binding of PCNA Mutants to Target Partners: Pol32 (Y2H)” value with Pol32 came out at 1. In addition, the “Binding of PCNA Mutants to Target Partners: Rad27, fold increase or decrease (quantitative Y2H)” value in the assay with Rad27 was 1.7 ^c fold. Besides, the “viability of strain containing the mutant as the sole source of PCNA” value in the assay with yeast strains (plasmid shuffling, selection on 5FOA) is “lethality”. Besides, in the assay with yeast strains (rad27-deleted background, 5-FOA), the “effect of rad27 deletion on lethality of the mutant strain” value is given as “suppressed the lethality”. In the assay on Cdc9, the “Y2H growth relative to WT PCNA-expressing strain: Cdc9” value is on record as “WT”. The “Y2H growth relative to WT PCNA-expressing strain: Apn2” value in the assay on Apn2 is “WT”. Moreover, in the assay with Msh3, the “Y2H growth relative to WT PCNA-expressing strain: Msh3” value is “WT”. In addition, the “Y2H growth relative to WT PCNA-expressing strain: Cac1” value with Cac1 was “--”. Further, the “Y2H growth relative to WT PCNA-expressing strain: Eco1” value with Eco1 is given as “--”. Moreover, in the assay on Rfc1, the “Y2H growth relative to WT PCNA-expressing strain: Rfc1” value is “WT”. For the same molecule, the “Y2H growth relative to WT PCNA-expressing strain: Rrm3” value in the assay on Rrm3 is given as “WT”.

B2: pol30-Rad27E31: PCNA mutant evolved for Rad27, IDCL sequence DGDYDVLKIREL (protein)
chain: MLEAKFEEASLFKRIIDGFKDCVQLVNFQCKEDGIIAQAVDDSRVLLVSLEIGVEAFQEYRCDHPVTLGMDLTSLSKILRCGNNTDTLTLIADNTPDSIILLFEDTKKDRIAEYSLKLMDGDYDVLKIRELQYDSTLSLPSSEFSKIVRDLSQLSDSINIMITKETIKFVADGDIGSGSVIIKPFVDMEHPETSIKLEMDQPVDLTFGAKYLLDIIKGSSLSDRVGIRLSSEAPALFQFDLKSGFLQFFLAPKFNDEE
modifications: left off: Gal4 activation domain, end not stated, kept
As for B2, the “Binding of PCNA Mutants to Target Partners: Rad30 (Y2H)” value with Rad30 amounted to 1. In the assay with Ung1, the “Binding of PCNA Mutants to Target Partners: Ung1 (Y2H)” value amounted to 1. Moreover, the “Binding of PCNA Mutants to Target Partners: Msh6 (Y2H)” value in the assay with Msh6 is 1. For the same molecule, in the assay on Pol32, the “Binding of PCNA Mutants to Target Partners: Pol32 (Y2H)” value came to 1. The “Binding of PCNA Mutants to Target Partners: Rad27, fold increase or decrease (quantitative Y2H)” value in the assay on Rad27 was 1.5 ^c fold. Besides, the “Y2H growth relative to WT PCNA-expressing strain: Cdc9” value in the assay with Cdc9 is listed as “WT”. For the same molecule, the “Y2H growth relative to WT PCNA-expressing strain: Apn2” value in the assay with Apn2 is reported as “WT”. For the same molecule, the “Y2H growth relative to WT PCNA-expressing strain: Msh3” value in the assay with Msh3 is given as “WT”. Further, in the assay with Cac1, the “Y2H growth relative to WT PCNA-expressing strain: Cac1” value is given as “+”. The “Y2H growth relative to WT PCNA-expressing strain: Eco1” value with Eco1 was “WT”. In the assay with Rfc1, the “Y2H growth relative to WT PCNA-expressing strain: Rfc1” value is given as “WT”. Also, in the assay on Rrm3, the “Y2H growth relative to WT PCNA-expressing strain: Rrm3” value is given as “WT”.

Values taken from paper PMC2953525, “Subtle Alterations in PCNA-Partner Interactions Severely Impair DNA Replication and Repair” (PLoS Biology, 2010).
